These results are taken from patent US20110052551A1, “CARDIAC MYOCYTE MORPHOGENIC COMPOSITIONS AND METHODS OF USE THEREFOR” (priority 2008, published 2011).

This assay relates to unfractionated BMMNCs. The assay can be described thus: qRT-PCR of Wnt3a and β-catenin expression in cultured BMMNCs. The assay is classed as cell-based, mice. The settings on record: 21 days, relative to baseline. The procedure:
Assessment of mRNA expression by quantitative real-time RT-PCR (qRT-PCR). All qRT-PCR reagents and primers were purchased from Qiagen Inc. (Valencia, Calif., United States of America). Prior to mRNA extraction, cell number was determined and calculated by Trypan blue exclusion. cDNA was generated from freshly isolated (designated as baseline) and cultured unfractionated BMMNCs at days 0, 3, 7, and 21 (see FIG. 9A) using QUANTISCRIPT REVERSE TRANSCRIPTASE™ (Qiagen Inc., Valencia, Calif., United States of America) contained in RT master mix of Cell to cDNA kits according to manufacturer's protocol. […]
To avoid amplification of contaminating DNA, all validated qRT-PCR primers were designed to cross […] sequences within the cDNA to be amplified. Quantitative qRT-PCR analysis was performed in an ABI Prism 7900H sequence detection system (Applied Biosystems, Foster City, Calif.) using QUANTITECT™ SYBR® Green Real Time PCR kits. Each 50 μl qRT-PCR reaction contained 2 μl (approximately 50 ng) of cDNA, 5 μl of 1× primer mix (containing approximately 500 nM sense and anti-sense primers) and 25 μl of 2× QUANTITECT™ SYBR® Green master mix. […]
The PCR product level is calculated from the threshold cycle (Ct). That is, the amplification cycle number at which exponential PCR-generated gene-specific fluorescence is first detected (above a fixed threshold level). […]

B1: Wnt3a: recombinant Wnt3a protein, canonical Wnt, used at 150 ng/ml (protein, UniProt P56704 19-352, looked up)
Protein Wnt-3a: SYPIWWSLAVGPQYSSLGSQPILCASIPGLVPKQLRFCRNYVEIMPSVAEGIKIGIQECQHQFRGRRWNCTTVHDSLAIFGPVLDKATRESAFVHAIASAGVAFAVTRSCAEGTAAICGCSSRHQGSPGKGWKWGGCSEDIEFGGMVSREFADARENRPDARSAMNRHNNEAGRQAIASHMHLKCKCHGLSGSCEVKTCWWSQPDFRAIGDFLKDKYDSASEMVVEKHRESRGWVETLRPRYTYFKVPTERDLVYYEASPNFCEPNPETGSFGTRDRTCNVSSHGIDGCDLLCCGRGHNARAERRREKCRCVFHWCCYVSCQECTRVYDVHTCK
Consider B1, for which the “increase in β-catenin expression” value stood at 183.4±0.3 fold.
